{"source": "paper PMC7077851", "about": "“Comparative analysis of the human serine hydrolase OVCA2 to the model serine hydrolase homolog FSH1 from S. cerevisiae” (PLoS ONE, 2020)", "assay_in_all_cases": "purified protein", "assay_type_in_all_cases": "biochemical, Homo sapiens", "key": {"purified protein [1]": {"substrate": "COCC(=O)OCOc1ccc2c(c1)Oc1cc(OCOC(=O)COC)ccc1C21OC(=O)c2ccccc21", "settings": "PBS, 0.1 mg/mL acetylated BSA, 25 °C"}, "purified protein [2]": {"substrate": "CC(=O)Oc1ccc([N+](=O)[O-])cc1", "settings": "PBS, 0.1 mg/mL acetylated BSA, 1% acetonitrile, 25 °C"}, "purified protein [3]": {"substrate": "CCCCCCCCCCCC(=O)Oc1ccc([N+](=O)[O-])cc1", "settings": "PBS, 0.1 mg/mL acetylated BSA, 1% acetonitrile, 25 °C"}, "purified protein [4]": {"substrate": "COCCOCC(=O)OCOc1ccc2c(c1)Oc1cc(OCOC(=O)COCCOC)ccc1C21OC(=O)c2ccccc21", "settings": "PBS, 0.1 mg/mL acetylated BSA, 25 °C"}, "purified protein [5]": {"substrate": "CCCC(=O)Oc1ccc([N+](=O)[O-])cc1", "settings": "PBS, 0.1 mg/mL acetylated BSA, 1% acetonitrile, 25 °C"}, "purified protein [6]": {"substrate": "CCCCCCCCCCCCCC(=O)Oc1ccc([N+](=O)[O-])cc1", "settings": "PBS, 0.1 mg/mL acetylated BSA, 1% acetonitrile, 25 °C"}, "purified protein [7]": {"substrate": "CCCCCCCCCC(=O)Oc1ccc([N+](=O)[O-])cc1", "settings": "PBS, 0.1 mg/mL acetylated BSA, 1% acetonitrile, 25 °C"}, "purified protein [8]": {"substrate": "CCCCCCCC(=O)Oc1ccc([N+](=O)[O-])cc1", "settings": "PBS, 0.1 mg/mL acetylated BSA, 1% acetonitrile, 25 °C"}}}
{"protein": "OVCA2 (Homo sapiens) (protein) MAAQRPLRVLCLAGFRQSERGFREKTGALRKALRGRAELVCLSGPHPVPDPPGPEGARSDFGSCPPEEQPRGWWFSEQEADVFSALEEPAVCRGLEESLGMVAQALNRLGPFDGLLGFSQGAALAALVCALGQAGDPRFPLPRFILLVSGFCPRGIGFKESILQRPLSLPSLHVFGDTDKVIPSQESVQLASQFPGAITLTHSGGHFIPAAAPQRQAYLKFLDQFAE", "values": [{"measurement": "Km", "setting": "purified protein [1]", "result": "12 ± 5", "unit": "µM"}, {"measurement": "kcat", "setting": "purified protein [1]", "result": "0.0013 ± 0.0002", "unit": "s⁻¹"}, {"measurement": "kcat/Km", "setting": "purified protein [1]", "result": "100 ± 40", "unit": "M⁻¹ s⁻¹"}, {"measurement": "Km", "setting": "purified protein [2]", "result": "1400 ± 600", "unit": "µM"}, {"measurement": "kcat", "setting": "purified protein [2]", "result": "0.26 ± 0.03", "unit": "s⁻¹"}, {"measurement": "kcat/Km", "setting": "purified protein [2]", "result": "200 ± 50", "unit": "M⁻¹ s⁻¹"}, {"measurement": "Km", "setting": "purified protein [3]", "result": "29 ± 19", "unit": "µM"}, {"measurement": "kcat", "setting": "purified protein [3]", "result": "0.076 ± 0.01", "unit": "s⁻¹"}, {"measurement": "kcat/Km", "setting": "purified protein [3]", "result": "2700 ± 950", "unit": "M⁻¹ s⁻¹"}, {"measurement": "Km", "setting": "purified protein [4]", "result": "3.7 ± 0.8", "unit": "µM"}, {"measurement": "kcat", "setting": "purified protein [4]", "result": "0.0012 ± 0.0001", "unit": "s⁻¹"}, {"measurement": "kcat/Km", "setting": "purified protein [4]", "result": "330 ± 70", "unit": "M⁻¹ s⁻¹"}, {"measurement": "Km", "setting": "purified protein [5]", "result": "2900 ± 100", "unit": "µM"}, {"measurement": "Km", "setting": "purified protein [6]", "result": "17 ± 14", "unit": "µM"}, {"measurement": "kcat", "setting": "purified protein [6]", "result": "0.076 ± 0.01", "unit": "s⁻¹"}, {"measurement": "kcat/Km", "setting": "purified protein [6]", "result": "4500 ± 1800", "unit": "M⁻¹ s⁻¹"}, {"measurement": "Km", "setting": "purified protein [7]", "result": "3.84 ± 1.1", "unit": "µM"}, {"measurement": "kcat", "setting": "purified protein [7]", "result": "0.025 ± 0.001", "unit": "s⁻¹"}, {"measurement": "kcat/Km", "setting": "purified protein [7]", "result": "6800 ± 1000", "unit": "M⁻¹ s⁻¹"}, {"measurement": "Km", "setting": "purified protein [8]", "result": "6.1 ± 5.7", "unit": "µM"}, {"measurement": "kcat", "setting": "purified protein [8]", "result": "0.023 ± 0.005", "unit": "s⁻¹"}, {"measurement": "kcat/Km", "setting": "purified protein [8]", "result": "3800 ± 1800", "unit": "M⁻¹ s⁻¹"}]}
{"protein": "OVCA2 (Homo sapiens; D179A) (protein) MAAQRPLRVLCLAGFRQSERGFREKTGALRKALRGRAELVCLSGPHPVPDPPGPEGARSDFGSCPPEEQPRGWWFSEQEADVFSALEEPAVCRGLEESLGMVAQALNRLGPFDGLLGFSQGAALAALVCALGQAGDPRFPLPRFILLVSGFCPRGIGFKESILQRPLSLPSLHVFGDTAKVIPSQESVQLASQFPGAITLTHSGGHFIPAAAPQRQAYLKFLDQFAE", "values": [{"measurement": "Km", "setting": "purified protein [3]", "result": "1.1 ± 0.6", "unit": "µM"}, {"measurement": "kcat", "setting": "purified protein [3]", "result": "7.3e-05 ± 8e-06", "unit": "s⁻¹"}, {"measurement": "kcat/Km", "setting": "purified protein [3]", "result": "69 ± 20", "unit": "M⁻¹ s⁻¹"}, {"measurement": "Km", "setting": "purified protein [6]", "result": "5.7 ± 1.9", "unit": "µM"}, {"measurement": "kcat", "setting": "purified protein [6]", "result": "4.6e-05 ± 4e-06", "unit": "s⁻¹"}, {"measurement": "kcat/Km", "setting": "purified protein [6]", "result": "7.8 ± 1.4", "unit": "M⁻¹ s⁻¹"}, {"measurement": "Km", "setting": "purified protein [7]", "result": "3.2 ± 1.5", "unit": "µM"}, {"measurement": "kcat", "setting": "purified protein [7]", "result": "3.7e-05 ± 4e-06", "unit": "s⁻¹"}, {"measurement": "kcat/Km", "setting": "purified protein [7]", "result": "11 ± 3", "unit": "M⁻¹ s⁻¹"}, {"measurement": "Km", "setting": "purified protein [8]", "result": "2.0 ± 0.2", "unit": "µM"}, {"measurement": "kcat/Km", "setting": "purified protein [8]", "result": "0.5 ± 0.3", "unit": "M⁻¹ s⁻¹"}]}
